# Measured values reported in patent US20200062804A1 (ADRX, published 2020).
# Non-standard residues stand in square brackets, D forms with d. No end group written: not given here. Chg = N[C@H](C(=O)O)C1CCCCC1
# T1: Nat1 (LTIITLE) (also: TFA salt)
# T1 peptide: LTIITLE
# Biological target: T1, Nat1 (LTIITLE)
# Test: cell-based or functional assay
row,"IC50, Thiofiavin T aggregation assay",Binder
1,1680 nM,LTRITLE
2,3140 nM,[dQ][dW][dR][dW][dR][dH][dR] [qwrwrhr]
3,3740 nM,TRIYRVK
4,5170 nM,TYIYRQR
5,1340 nM,[dI][dL][dK][dW][dL][dW] [ilkwlw]
6,824 nM,YTYMLWK
7,2270 nM,[dS][dH][dW][dR][dH][dH][dR] [shwrhhr]
8,67 nM,[Chg]R[Chg]RRYR [Chg-Arg-Chg-Arg-Arg-Tyr-Arg]
9,1730 nM,LLAKYHR
10,702 nM,[dR][dL][dK][dW][dR][dW] [rlkwrw]
11,1250 nM,IRARRYR
12,1900 nM,IWIRRWR
13,5700 nM,[dQ][dV][dR][dY][dH][dK][dN] [qvryhkn]
14,716 nM,[dQ][dL][dK][dW][dL][dH] [qlkwlh]
15,1600 nM,YYIRTYH

# Further lines, the binder ahead of its results:
row,Binder,"IC50, Thiofiavin T aggregation assay"
1,LSIRQH,945 nM
2,IFVYHH,703 nM
3,WTIRTWH,784 nM
4,WTRITLE,1340 nM
5,IHIEIK,723 nM
6,TRIRFYR,64 nM
7,AYYYRHR,2120 nM
8,[dR][dQ][dW][dY][dR][dW][dQ] [rqwyrwq],2720 nM
9,TYVYRRR,3660 nM
10,[dF][dA][dR][dA][dH][dR][dR] [farahrr],906 nM
11,WTIKLTH,720 nM
12,[dK][dL][dK][dW][dL][dW] [klkwlw],1060 nM
